Results on 3 molecules are retold here after patent US20240294624A1, “ANTI-ERYTHROPOIETIN ANTIBODY” (ANDREMACON S.R.L., priority 2021, published 2024).

In assay [1] the test system is primary TMZ-resistant glioblastoma stem cells (GSC-R). As to the kind of experiment: MTT viability of chemo-resistant cells. The following applies: Homo sapiens, Glioblastoma stem cell, 96 h, read-out: percent survival / viability.
Experimental: In detail, GSCs and U87 parental cell line, which are sensitive to TMZ, were first maintained in low doses of TMZ (25 μM) and then successively exposed for two months to incremental doses of 25 μM of TMZ each time (up to 500 μM). After the killing of a majority of the cells, the surviving cells were maintained until a normal rate of growth were obtained. […] Cell viability was assessed by 3-(4,5-Dimethylthiazol-2-yl)-2,5-Diphenyl-tetrazoliumBromide (MTT) assay, as a function of redox potential (FIG. 24). Cells (5×10^3/well) were seeded and cultured in 96-well plate for 24 h in Basal Medium (BM). Then, culture media were replaced with fresh media containing the specific treatments, or in BM as a control condition (CTR).
Test was performed in triplicate after 96 h of treatment, by replacing culture media with 100 μL of fresh media added with 10 μL of MTT 5 mg/ml in D-PBS. After 4 h of incubation, media were removed and cells were lysed with 100 μL of 2-propanol/formic acid (95:5, by vol) for 10 min. Then, absorbance was read at 570 nm in microplate reader.
Assay [2] deals with T1, EphB4 (Homo sapiens, UniProt P54760).
T1 sequence (P54760 16-987): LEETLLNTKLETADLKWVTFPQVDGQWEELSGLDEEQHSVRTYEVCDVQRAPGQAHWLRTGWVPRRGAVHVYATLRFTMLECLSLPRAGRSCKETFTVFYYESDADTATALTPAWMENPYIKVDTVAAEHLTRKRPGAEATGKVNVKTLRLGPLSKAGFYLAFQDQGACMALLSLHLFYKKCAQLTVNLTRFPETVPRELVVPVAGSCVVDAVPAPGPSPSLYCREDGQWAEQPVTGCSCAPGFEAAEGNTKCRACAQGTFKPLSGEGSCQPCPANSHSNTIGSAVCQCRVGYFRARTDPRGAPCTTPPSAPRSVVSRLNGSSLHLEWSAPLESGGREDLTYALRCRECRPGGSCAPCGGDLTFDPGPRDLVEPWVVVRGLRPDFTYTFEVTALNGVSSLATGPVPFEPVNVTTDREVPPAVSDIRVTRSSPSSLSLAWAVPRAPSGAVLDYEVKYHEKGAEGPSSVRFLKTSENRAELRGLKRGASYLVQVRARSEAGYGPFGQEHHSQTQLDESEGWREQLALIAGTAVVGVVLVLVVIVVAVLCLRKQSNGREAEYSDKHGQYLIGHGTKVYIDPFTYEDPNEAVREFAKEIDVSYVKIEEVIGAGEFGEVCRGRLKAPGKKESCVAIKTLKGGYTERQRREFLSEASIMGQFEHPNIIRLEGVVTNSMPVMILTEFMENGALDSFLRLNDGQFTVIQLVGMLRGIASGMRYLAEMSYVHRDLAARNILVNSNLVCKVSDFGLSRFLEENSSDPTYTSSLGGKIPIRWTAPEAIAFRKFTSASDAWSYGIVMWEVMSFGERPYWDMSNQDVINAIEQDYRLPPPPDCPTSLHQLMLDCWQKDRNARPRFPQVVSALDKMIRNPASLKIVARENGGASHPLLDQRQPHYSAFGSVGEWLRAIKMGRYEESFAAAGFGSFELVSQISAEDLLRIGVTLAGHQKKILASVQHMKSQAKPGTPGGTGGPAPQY
The following applies: Epo for EphB4; cited from earlier work.

The target of assay [3] is T2, murine EPO (murine, UniProt P07321 27-192, limits assumed).
T2 construct: also called mEPO; m-EPO
T2 sequence (looked up): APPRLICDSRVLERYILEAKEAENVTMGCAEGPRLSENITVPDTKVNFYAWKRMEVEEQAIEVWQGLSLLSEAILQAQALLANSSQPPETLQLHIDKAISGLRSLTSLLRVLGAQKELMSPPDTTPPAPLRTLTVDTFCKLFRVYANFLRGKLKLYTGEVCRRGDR
Kind of assay: SPR (ProteOn XPR36), anti-EPO (C4) immobilized by amine coupling, EPO as analyte; murine EPO; fitted value.

Assay [4] has as its target T2, murine EPO. As to the kind of experiment: SPR (ProteOn XPR36), anti-EPO (C4) immobilized by amine coupling, EPO as analyte; murine EPO.

For the molecule `Cn1nnc2c(C(N)=O)ncn2c1=O` [TMZ, Temozolomide], the viability at 100 µM in assay [1] was around 93%.

As for “Epo: 30.4 kDa glycoprotein, main erythropoietic hormone”, in assay [2], the Kd is 880 nM.

B1: anti-EPO (C4) monoclonal antibody (antibody, V domains shown)
VH: EVKLQESGGGLVQPGGSLKLSCAASGFTFSTYTMSWVRQTPEKRLEWVAYISNGGDRTYYPDTVKGRFTISRDDAKNTLFLQMSSLKSEDTAMYYCARHNITTVPFTMDYWGQGTSVTVSS
VL: DIVLTQSPASLAVSLGQRATISCRASESVDYYGTGLMQWYQQRPGQPPKLLIYGASNVGSGVPARFSGSGSGTDFSLNIHPVEGDDIAMYFCQQTRKVPSTFGGGTKLEIK
notes: also called C4 antibody; anti-EPO (C4) mAB
B1 displayed an equilibrium dissociation constant (Kd) in assay [3] of 1010 nM. In assay [4], this molecule displayed an off-rate constant (koff) of 0.000669 s⁻¹ and a kon of 663 M⁻¹ s⁻¹.

What is called Kd is a measure of binding affinity in units of concentration. In general, koff refers to the rate constant with which the complex falls apart. A higher koff goes with a short-lived complex. The kon is the second-order rate constant of association.
